These results are taken from publication PMC8326426, “Resveratrol-induced Sirt1 phosphorylation by LKB1 mediates mitochondrial metabolism” (The Journal of Biological Chemistry, 2021).

The labels stand for the following.
T1: MBP-Sirt1 core domain, aa 234 to 510 (human, UniProt Q96EB6 234-510)
T1 construct: Sirt1, human, deacetylase core domain, aa 234 to 510; MBP-tagged Sirt1 was made by subcloning human Sirt1 cDNA into pMal-c2X; also called MBP-tagged core domain of Sirt1; source: E. coli, purified
T1 sequence (looked up): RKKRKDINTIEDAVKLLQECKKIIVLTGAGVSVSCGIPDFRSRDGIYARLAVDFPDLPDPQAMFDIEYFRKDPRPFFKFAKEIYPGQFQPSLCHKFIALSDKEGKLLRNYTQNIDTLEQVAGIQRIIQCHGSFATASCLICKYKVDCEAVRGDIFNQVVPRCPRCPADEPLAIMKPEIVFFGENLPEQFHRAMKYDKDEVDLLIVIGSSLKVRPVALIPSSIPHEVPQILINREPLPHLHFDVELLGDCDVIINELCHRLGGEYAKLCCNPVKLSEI

T2: His-Sirt1 core domain, aa 234 to 510 (human, UniProt Q96EB6 234-510)
T2 construct: Sirt1, human, deacetylase core domain, aa 234 to 510; His-tagged Sirt1 was made by subcloning human Sirt1 cDNA into pET28a; also called His-tagged Sirt1 core domain; source: E. coli Rosetta (DE3), eluted
T2 sequence (looked up): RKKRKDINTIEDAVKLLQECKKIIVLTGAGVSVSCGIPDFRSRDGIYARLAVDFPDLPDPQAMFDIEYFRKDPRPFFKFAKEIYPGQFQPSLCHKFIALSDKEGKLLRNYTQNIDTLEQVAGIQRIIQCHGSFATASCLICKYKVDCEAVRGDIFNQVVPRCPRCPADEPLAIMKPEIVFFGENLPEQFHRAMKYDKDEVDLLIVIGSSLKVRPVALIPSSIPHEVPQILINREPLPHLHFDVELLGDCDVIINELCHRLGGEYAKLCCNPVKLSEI

B1: GST-Sirt1 WT (C terminus), aa 511 to 747 (domain or fragment, human, UniProt Q96EB6 511-747, looked up)
chain: TEKPPRTQKELAYLSELPPTPLHVSEDSSSPERTSPPDSSVIVTLLDQAAKSNDDLDVSESKGCMEEKPQEVQTSRNVESIAEQMENPDLKNVGSSTGEKNERTSVAGTVRKCWPNRVAKEQISRRLDGNQYLFLPPNRYIFHGAEVYSDSEDDVLSSSSCGSNSDSGTCQSPSLEEPMEDESEIEEFYNGLEDEPDVPERAGGAGFGTDGDDQEAINEAISVKQEVTDMNYPSNKS
notes: Sirt1, human, C terminus, aa 511 to 747; GST-tagged Sirt1 was made by subcloning human Sirt1 cDNA into pGEX-6p-1; also called GST-Sirt1-C; GST-tagged C terminus of Sirt1; source: E. coli Rosetta (DE3), purified (glutathione-Sepharose 4B, eluted with reduced glutathione)
B2: GST-Sirt1 3A mutant (C terminus), aa 511 to 747 (domain or fragment, human, UniProt Q96EB6 511-747, looked up)
chain: TEKPPRTQKELAYLSELPPTPLHVSEDSSSPERTSPPDSSVIVTLLDQAAKSNDDLDVSESKGCMEEKPQEVQTSRNVESIAEQMENPDLKNVGSSTGEKNERTAVAGTVRKCWPNRVAKEQISRRLDGNQYLFLPPNRYIFHGAEVYSDSEDDVLSSASCGSNSDSGTCQSPSLEEPMEDESEIEEFYNGLEDEPDVPERAGGAGFGTDGDDQEAINEAIAVKQEVTDMNYPSNKS
notes: Sirt1, human, C terminus, aa 511 to 747, Ser615, Ser669 and Ser732 replaced by Ala; source: E. coli Rosetta (DE3), purified (glutathione-Sepharose 4B, eluted with reduced glutathione)
B3: GST-Sirt1 3D mutant (C terminus), aa 511 to 747 (domain or fragment, human, UniProt Q96EB6 511-747, looked up)
chain: TEKPPRTQKELAYLSELPPTPLHVSEDSSSPERTSPPDSSVIVTLLDQAAKSNDDLDVSESKGCMEEKPQEVQTSRNVESIAEQMENPDLKNVGSSTGEKNERTDVAGTVRKCWPNRVAKEQISRRLDGNQYLFLPPNRYIFHGAEVYSDSEDDVLSSDSCGSNSDSGTCQSPSLEEPMEDESEIEEFYNGLEDEPDVPERAGGAGFGTDGDDQEAINEAIDVKQEVTDMNYPSNKS
notes: Sirt1, human, C terminus, aa 511 to 747, Ser615, Ser669 and Ser732 replaced by Asp; source: E. coli Rosetta (DE3), purified (glutathione-Sepharose 4B, eluted with reduced glutathione)
B4: GST-tagged LZ (leucine-zipper) domain of DBC1, aa 243 to 264 (domain or fragment, UniProt Q8N163 243-264, looked up)
chain: LQRRYRSLLVPSDFLSVHLSWL
notes: DBC1 (Deleted in Breast Cancer 1), leucine zipper, aa 243 to 264; also called GST-LZ; DBC1 LZ domain; source: E. coli, purified
B5: C-terminal truncation of Sirt1, WT (eluted competitor), aa 511 to 747 (domain or fragment, human, UniProt Q96EB6 511-747, looked up)
chain: TEKPPRTQKELAYLSELPPTPLHVSEDSSSPERTSPPDSSVIVTLLDQAAKSNDDLDVSESKGCMEEKPQEVQTSRNVESIAEQMENPDLKNVGSSTGEKNERTSVAGTVRKCWPNRVAKEQISRRLDGNQYLFLPPNRYIFHGAEVYSDSEDDVLSSSSCGSNSDSGTCQSPSLEEPMEDESEIEEFYNGLEDEPDVPERAGGAGFGTDGDDQEAINEAISVKQEVTDMNYPSNKS
notes: Sirt1, human, C terminus, aa 511 to 747; the methods name GST- and His-tagged Sirt1 truncations from E. coli; also called the C terminus of Sirt1; WT C terminus; source: eluted
B6: C-terminal truncation of Sirt1, 3D mutant (eluted competitor), aa 511 to 747 (domain or fragment, human, UniProt Q96EB6 511-747, looked up)
chain: TEKPPRTQKELAYLSELPPTPLHVSEDSSSPERTSPPDSSVIVTLLDQAAKSNDDLDVSESKGCMEEKPQEVQTSRNVESIAEQMENPDLKNVGSSTGEKNERTDVAGTVRKCWPNRVAKEQISRRLDGNQYLFLPPNRYIFHGAEVYSDSEDDVLSSDSCGSNSDSGTCQSPSLEEPMEDESEIEEFYNGLEDEPDVPERAGGAGFGTDGDDQEAINEAIDVKQEVTDMNYPSNKS
notes: Sirt1, human, C terminus, aa 511 to 747, Ser615, Ser669 and Ser732 replaced by Asp; also called 3D C terminus; source: eluted

For the first assay, the target named is T1, MBP-Sirt1 core domain, aa 234 to 510. The assay can be described thus: pull-down; MBP pull-down: MBP-Sirt1 core domain purified from E. coli incubated with eluted GST-Sirt1 C terminus (WT, 3A or 3D); bound fraction immunoblotted. As to conditions: both partners purified. Background: A western blot detects proteins with antibodies after separation by electrophoresis.
With B1, the binding result is recorded as “binds”.
Same read-out and setting: with B2 the entry was “binds”; with B3, “binds”.

In a further assay the target is T2, His-Sirt1 core domain, aa 234 to 510. The assay can be described thus: pull-down; competitive binding: 2 ug GST-LZ of DBC1 from E. coli, 2 ug eluted His-Sirt1 core domain, with or without 2 ug eluted C-terminal truncation of Sirt1 (WT or mutants), 4 h; bound fraction immunoblotted. Particulars: both partners purified.
As for B4, the binding result is listed as “binds”.
Same read-out and setting: with B5 the entry was “binds”; with B6, “binds”.
